For one protein, Km results are on record in patent publication US12534748B2, “Engineered beta-subunit of tryptophan synthase for production of non-canonical amino acids” (California Institute of Technology, priority 2015, dated 2026).

Substrate in the data set: c1ccc2[nH]ccc2c1
The experiment in a line: Tryptophan formation from L-serine and indole, kinetics of TmTrpB double mutant. It is filed as biochemical, Thermotoga maritima. As to conditions: other: 75° C., pH 8.0. On the procedure: Kinetics and UV-Vis Spectroscopy. Data were collected between 550 and 250 nm on a UV1800 Shimadzu spectrophotometer (Shimadzu) using 0.25-20 μM of enzyme in 200 mM potassium phosphate (pH 8.0) in a quartz cuvette. Samples were incubated at 75° C. for >3 min to ensure a stable temperature was reached. PfTrpB activity (kcat) was measured by monitoring tryptophan formation at 290 nm using Δe290=1.89 mM^−1·cm^−1.
Cloning, expression, and purification of the different orthologs. The genes encoding AfTrpB (UNIPROT ID O28672), TmTrpB (UNIPROT ID P50909) and EcTrpB (UNIPROT ID P0A879) were obtained from IDT and cloned into pET22(b)+ using Gibson Assembly. Protein expression was carried out in E. coli BL21 E. cloni Express cells (Lucigen) by inoculating 10-mL Terrific Broth (with 100 μg/mL ampicillin (TBamp)) with a single colony and incubated over night at 37° C. and 250 rpm. These overnight cultures were used to scale up to 500-mL TBamp expression cultures, which were grown by shaking at 250 rpm and 37° C. for ˜3 h or until an OD600 of 0.8 was reached. Then, after chilling the cultures on ice for 20 min, induction was conducted by the addition of IPTG to a final concentration of 1 mM. Induced cultures were allowed to grow at 250 rpm and 20° C. for another 20 h. After centrifugation, pelleted cells were frozen and stored at −20° C. until further use. […]

B1: Thermotoga maritima TrpB variant M145T N167D (Table 6 prints N167T), SEQ ID NO: 36 (Thermotoga maritima MSB8; M145T/N167D) (protein)
chain: MKGYFGPYGGQYVPEILMPALEELEAAYEEIMKDESFWKEFNDLLRDYAGRPTPLYFARRLSEKYGARIYLKREDLLHTGAHKINNAIGQVLLAKKMGKTRIIAETGAGQHGVATATAAALFGMECVIYMGEEDTIRQKPNVERTKLLGAKVVPVKSGSRTLKDAIDEALRDWITNLQTTYYVIGSVVGPHPYPIIVRNFQKVIGEETKKQILEKEGRLPDYIVACVGGGSNAAGIFYPFIDSGVKLIGVEAGGEGLETGKHAASLLKGKIGYLHGSKTFVLQDDWGQVQVTHSVSAGLDYSGVGPEHAYWRETGKVLYDAVTDEEALDAFIELSRLEGIIPALESSHALAYLKKINIKGKVVVVNLSGRGDKDLESVLNHPYVRERIRLEHHHHHH
By Km is commonly meant the concentration of substrate that gives half-maximal velocity. Regarding B1, the Km amounted to 32 µM.
